Experimental data taken from PMC11757143, “Generation and characterization of OX40-ligand fusion protein that agonizes OX40 on T-Lymphocytes” (Frontiers in Immunology, 2025).

Experiments:
Fc-scOX40L (mouse) = Fc-scOX40L (mouse) (UniProt P43488); experiment: non-reducing SDS-PAGE and immunoblot; recombinant OX40L proteins in Laemmli sample buffer, non-heated/non-reducing, SDS-PAGE, immunoblot with anti-PA tag antibody; oligomers judged by molecular weight
scOX40L-Fc (mouse) = scOX40L-Fc (mouse) (UniProt P43488); experiment: as above

Row | stoichiometry N (Fc-scOX40L (mouse)) | stoichiometry N (scOX40L-Fc (mouse)) | Substance
1 | 2 |  | Fc-scOX40L (from UniProt P43488 51-198; P43488 51-198; P43488 51-198) (Fc fusion)
2 |  | 2 | scOX40L-Fc (from UniProt P43488 51-198; P43488 51-198; P43488 51-198) (Fc fusion)
